Molecular target: PSA (prostate specific antigen) (UniProt P07288)
Assay: cell-based or functional assay

Sequence of UniProt P07288 (P07288 25-261 limits assumed): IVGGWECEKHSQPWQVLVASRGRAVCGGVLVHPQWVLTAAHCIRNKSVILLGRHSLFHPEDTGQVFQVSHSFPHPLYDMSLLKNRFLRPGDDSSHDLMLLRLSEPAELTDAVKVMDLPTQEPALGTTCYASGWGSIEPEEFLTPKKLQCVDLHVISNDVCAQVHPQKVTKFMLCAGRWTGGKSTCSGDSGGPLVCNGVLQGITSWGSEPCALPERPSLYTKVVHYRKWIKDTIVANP

“Analog 221 (211/amide or nonester) Mu-His-Ser-Ser-Lys(Fmoc)-Leu-Gln-Leu (peptide)” gave a cytotoxicity IC50, 48 hour exposure, Prostate DuPro cells (trace PSA) of 13 µM, a cytotoxicity IC50, 48 hour exposure, Prostate LnCAP cells (positive PSA) of 0.8 µM and a cytotoxicity IC50, 48 hour exposure, Prostate PC3 cells (negative PSA, control) greater than 21 µM.
